The target in test [1] is T1, soluble human FcRn (Homo sapiens, UniProt P55899).
T1 construct: made in house; host or cells: Chinese hamster ovary (CHO) cells, glutamine synthetase expression system
The test is described as follows: Equilibrium binding constants (KD) by surface plasmon resonance (Biacore). The note with it: pH 6. As to the method:
(§1) The following steps were performed to cross-link soluble human or cynomolgus FcRn to the dextran surface of a CM5 sensor chip (Biacore AB, Uppsala, Sweden) by an amine coupling reaction involving 1-ethyl-(3-dimethylaminopropyl)-carbodiimide hydrochloride (EDC) (Biacore AB, Uppsala, Sweden) and N-hydroxysuccinimide (NHS) (Biacore AB, Uppsala, Sweden) as recommended by Biacore (BIAapplications Handbook, version AB, section 4.2, Biacore AB, Uppsala, Sweden). The FcRn protein was diluted in 50 mM sodium acetate, pH 4.5 (Biacore AB, Uppsala, Sweden) to a concentration of 10 to 30 μg/ml and used to coat one flow cell on the sensor chip. Residual sites on the FcRn flow cell were blocked with 1 M ethanolamine hydrochloride pH 8.5 (Biacore AB, Uppsala, Sweden). A control flow cell was blocked with ethanolamine for reference subtraction. For analysis of the monomeric peptides, FcRn was coated to a final density of 4000-5000 response units (RU). For analysis of the peptide dimers, FcRn was coated to a density of 2000-2500 RU. […]
Ten 2-fold dilutions of the peptide were injected over the FcRn-CM5 chip at a rate of 20 μl/min for 2 min. […] Sensorgrams were generated and analyzed using BiaEval software version 3.1 (Biacore AB, Uppsala, Sweden). […]
Sensorgrams were generated and analyzed using BiaEval software version 3.1 (Biacore AB, Uppsala, Sweden). […]

Test [2] deals with T2, soluble human FcRn (shFcRn) (Homo sapiens, UniProt P55899).
T2 construct: made in house; host or cells: Chinese hamster ovary (CHO) cells, glutamine synthetase expression system
T2 sequence (P61769 21-119): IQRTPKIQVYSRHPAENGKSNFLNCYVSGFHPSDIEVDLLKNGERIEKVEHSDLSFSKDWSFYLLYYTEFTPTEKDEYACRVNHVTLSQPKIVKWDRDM
T2 sequence (P55899 24-297): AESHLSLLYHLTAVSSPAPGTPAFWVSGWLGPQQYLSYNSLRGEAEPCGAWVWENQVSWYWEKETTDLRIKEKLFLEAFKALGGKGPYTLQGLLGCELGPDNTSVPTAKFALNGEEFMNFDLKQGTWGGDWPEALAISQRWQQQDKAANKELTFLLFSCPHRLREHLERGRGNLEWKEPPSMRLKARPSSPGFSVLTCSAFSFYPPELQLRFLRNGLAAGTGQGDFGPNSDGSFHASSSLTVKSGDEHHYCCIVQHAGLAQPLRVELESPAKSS
It counts as binding. The note with it: IgG competition ELISA, 3 nM human IgG, buffer pH 6.
Method: A solution of soluble human FcRn (shFcRn) in Tris buffer was dialyzed twice, each time for 3 hours in 2 liters of PBS, pH 8.0. The quantity of recovered shFcRn was determined by measuring the absorbance at 280 nm. […] Biotinylation of shFcRn was accomplished by treating the dialyzed shFcRn with a 2-fold-molar excess of Sulfo-NHS-LC-Biotin (Invitrogen, Carlsbad, Calif.) for 2 hours at 4° C. Afterwards, the shFcRn-Sulfo-NHS-LC-Biotin reaction mixture was dialyzed twice in 2 L of cold PBS, followed by another absorbance reading to determine the concentration of the remaining protein. The biotinylated shFcRn was stored at 4° C. with 0.1% sodium azide until needed.
The wells were coated with 100 μl/well of 1 μg/ml biotinylated-shFcRn in Buffer A. The plate was sealed and incubated at 37° C. for 2 hours. Afterwards, the plate was washed with 200 μl/well of Buffer B (Buffer B: 100 mM MES pH 6, 150 mM NaCl, 0.5% BSA IgG-free (Jackson ImmunoResearch, West Grove, Pa.), 0.05% Tween-20). Then, 50 μl/well of 6 nM human IgG (Calbiochem, San Diego, Calif.) in Buffer B as well as 50 μl/well of the various peptide competitors (at various concentration) were added, so that the final concentration of IgG in the well was 3 nM. […] Once color developed, 100 μl/well of TMB stop solution (KPL, Gaithersburg, Md.) was added and the absorbance was measured at 450 nm.

For test [3], the target named is T3, soluble human FcRn (shFcRn) (human, UniProt P55899 24-297; P61769 21-119, biotinylated with Sulfo-NHS-LC-Biotin in the ELISA; amine-coupled to a CM5 chip in SPR).
T3 construct: also called biotinylated shFcRn
T3 sequence (P55899 24-297 limits assumed, chain 1 of 2): as the sequence (P55899 24-297) above
T3 sequence (P61769 21-119 limits assumed, chain 2 of 2): as the sequence (P61769 21-119) above
The test is described as follows: SPR, pH 7.4. Here is the method:
as §1, with “µg/ml” for “μg/ml”
(§2) A. Representative Procedure for the Determination of Binding Constant of Monomeric Peptides Ten 2-fold dilutions of the peptide were injected over the FcRn-CM5 chip at a rate of 20 µl/min for 2 min. […] Sensorgrams were generated and analyzed using BiaEval software version 3.1 (Biacore AB, Uppsala, Sweden). […]

Test [4] concerns the target T3, soluble human FcRn (shFcRn). The test is described as follows: SPR, pH 6.
For test [5] the target is unchanged. The test is described as follows: competition ELISA vs human IgG. Here is the method:
(§3) The wells were coated with 100 μl/well of 1 μg/ml biotinylated-shFcRn in Buffer A. The plate was sealed and incubated at 37° C. for 2 hours. Afterwards, the plate was washed with 200 μl/well of Buffer B (Buffer B: 100 mM MES pH 6, 150 mM NaCl, 0.5% BSA IgG-free (Jackson ImmunoResearch, West Grove, Pa.), 0.05% Tween-20). […] To allow for mixing, the plate was rocked for 2 minutes, sealed and incubated at 37° C. for 2 hours. […] The plate was covered, incubated for 30 minutes at room temperature and washed 4 times with 200 μl/well of ice-cold buffer B. SureBlue TMB substrate solution (100 μl/well, KPL, Gaithersburg, Md.) was added and the plate was allowed to incubate at room temperature until color developed, which took 5 to 10 minutes. Once color developed, 100 μl/well of TMB stop solution (KPL, Gaithersburg, Md.) was added and the absorbance was measured at 450 nm.

For test [6] the target is unchanged. The test is described as follows: competition ELISA vs human IgG. This is another data set of the same source.
For test [7] the target is unchanged. The test is described as follows: SPR, pH 7.4. Here is the method: (§4) The following steps were performed to cross-link soluble human or cynomolgus FcRn to the dextran surface of a CM5 sensor chip (Biacore AB, Uppsala, Sweden) by an amine coupling reaction involving 1-ethyl-(3-dimethylaminopropyl)-carbodiimide hydrochloride (EDC) (Biacore AB, Uppsala, Sweden) and N-hydroxysuccinimide (NHS) (Biacore AB, Uppsala, Sweden) as recommended by Biacore (BIAapplications Handbook, version AB, section 4.2, Biacore AB, Uppsala, Sweden). The FcRn protein was diluted in 50 mM sodium acetate, pH 4.5 (Biacore AB, Uppsala, Sweden) to a concentration of 10 to 30 µg/ml and used to coat one flow cell on the sensor chip. Residual sites on the FcRn flow cell were blocked with 1 M ethanolamine hydrochloride pH 8.5 (Biacore AB, Uppsala, Sweden). A control flow cell was blocked with ethanolamine for reference subtraction. For analysis of the monomeric peptides, FcRn was coated to a final density of 4000-5000 response units (RU). For analysis of the peptide dimers, FcRn was coated to a density of 2000-2500 RU. All SPR measurements were performed using a BIACORE 3000 Instrument (Biacore AB Uppsala, Sweden). For measurements done at either pH 6 or pH 7.4, experiments were performed in 50 mM phosphate, 100 mM sodium chloride, 0.01% surfactant P20 (Biacore AB, Uppsala, Sweden).
(§5) A. Representative Procedure for the Determination of Binding Constant of Monomeric Peptides Ten 2-fold dilutions of the peptide were injected over the FcRn-CM5 chip at a rate of 20 µl/min for 2 min. The peptide was dissociated from the chip for 2.5 minutes with buffer. Any remaining peptide was removed from the chip with a 30 second injection of HBS-P buffer (Biacore AB, Uppsala, Sweden) at a rate of 30 µl/min. Sensorgrams were generated and analyzed using BiaEval software version 3.1 (Biacore AB, Uppsala, Sweden). The equilibrium RU observed for each injection was plotted against concentration. The equilibrium K_D values were derived by analysis of the plots using the steady state affinity model included in the BiaEval software.
The source holds these as a separate data set.

Test [8] shares this target. The test is described as follows: SPR, pH 6. As to the method: as §4, §5
The source holds these as a separate data set.

The target is the same in test [9]. The test is described as follows: SPR, pH 6; small-letter c (D-cysteine) at both Cys positions. As to the method:
as §1, with “µg/ml” for “μg/ml”
as §2

Test [10] shares this target. The test is described as follows: competition ELISA vs human IgG. As to the method: as §3
The source holds these as a separate data set.

The target is the same in test [11]. The test is described as follows: SPR, pH 6; Tyr replaced by NMeTyr (N-methyl scan). Here is the method:
as §1, with “µg/ml” for “μg/ml”
as §2

The target is the same in test [12]. The test is described as follows: SPR, pH 6; small-letter c (D-cysteine) at first Cys position, no Pen. As to the method: as §1, with “µg/ml” for “μg/ml”
as §2

Test [13] has the same target. The test is described as follows: SPR, pH 6. The source holds these as a separate data set.
Test [14] shares this target. The test is described as follows: competition ELISA vs human IgG. The source holds these as a separate data set.

Like-named read-outs stand apart in the source and are kept apart here. Starred links: 1 amine or outer side, 2 acyl side, 3 side chain; linkers in the order of their positions; H or OH if unused. Positions of bridges follow the written chain, without caps; N, C: chain ends. Non-standard residues stand in square brackets, D forms with d. No end group written: not given here. X1 = 3(R)‑3‑amino‑2‑oxo‑1‑piperidine‑acetic acid, O=C1[C@H](N[*:1])CCCN1CC(=O)[*:2]; NMeL = CN[C@@H](CC(C)C)C(=O)O; Pen = CC(C)(S)[C@H](N)C(=O)O; NMeA = CN[C@@H](C)C(=O)O; βAla = NCCC(=O)O A value given as a limit tells only on which side of the number the result lay.

T1 sequence (P55899 24-297): as the sequence (P55899 24-297) above
T1 sequence (P61769 21-119, further chain): as the sequence (P61769 21-119) above

Consider “QRFCGHF[βAla]LYPCNGP (cysteine pairing not given here) [Peptide No. 25]”, for which, in test [1], the Kd is greater than 250000 nM. Further, the IC50 in test [2] was greater than 125000 nM.

On to RFXTGHFGXXYPC (Pen3; Sar9; NMeLeu10; disulfide; C-terminal amide) [Peptide No. 235], for which the Kd stood at 170 nM in test [3], 31 nM in test [4], 170 nM in test [7] and 31 nM in test [8]. In addition, the IC50 in test [5] and in test [6] was 490 nM in each case.

Consider QRFXTGHFGGLYPXNGP (D-Cys4; D-Cys14; disulfide; C-terminal amide) [Peptide No. 31], for which the concentration for half-maximal inhibition (IC50) in test [6] was greater than 500000 nM. In [9], this molecule returned a Kd of 200000 nM.

With RFVTGHFGXXYPA (Sar9; NMeLeu10; unbridged; C-terminal amide) [Peptide No. 236], the half-inhibitory concentration (IC50) in test [10] and in [6] was 37000 nM each time. Moreover, in test [7], the Kd worked out at 9000 nM.

In turn, QRFXTGHFGGLXPCNGP (Pen4; NMeTyr12; disulfide; C-terminal amide) [Peptide No. 114] gave a Kd in [11] of 92000 nM.

QRFXTGHFGGLYPCNGP (D-Cys4; disulfide; C-terminal amide) [Peptide No. 29]: in [12], binding was put at a Kd of 150000 nM.

With RF[Pen][NMeA]GHF[X1][NMeL]YPC-NH2 (disulfide 3-12 (inferred)) [Peptide No. 228], the Kd in test [13] was found to be 145 nM. For the same molecule, the IC50 in test [14] stood at 1100 nM.

For the origin of these results see patent US8906844B2 (SYNTONIX PHARMACEUTICALS, dated 2014).
